Measurements as given in paper PMC5444859.

How the values were obtained:
[1] = target: isolated CASV L-Cterm domain 2 (California Academy of Sciences virus (CASV)); assay: SAXS
[2] = target: CASV L-Cterm (C-terminal 326 amino acids of the California Academy of Sciences virus L protein, residues 1721-2046) (California Academy of Sciences virus (CASV)) (UniProt J7HBG8); assay: SEC
[3] = target: CASV L-Cterm (C-terminal 326 amino acids of the California Academy of Sciences virus L protein, residues 1721-2046) (California Academy of Sciences virus (CASV)) (UniProt J7HBG8); assay: SAXS

isolated CASV L-Cterm domain 2 (domain or fragment)
stoichiometry N [1]: 2

CASV L-Cterm (C-terminal 326 amino acids of the California Academy of Sciences virus L protein, residues 1721-2046) (from UniProt J7HBG8 1721-2046) (domain or fragment)
stoichiometry N [2]: 2 | stoichiometry N [3]: 2
